Assay results as given in patent publication US20200283528A1 (NUMAB THERAPEUTICS, published 2020).

Legend:
[1] = target: T1, human PDL1 expressed on cells (human, UniProt Q9NZQ7 19-290); test: cell-based or functional assay
[2] = target: T2, human PDL1 (recombinant, soluble) (human, UniProt Q9NZQ7 19-238); test: PDL1/PD-1 competition ELISA; PD-1 coated, biotinylated PDL1 1 ng/ml
T2 construct: also called hPDL1; hPD-L1
Method: (§1) ELISA microplates coated overnight at 4° C. with 4 μg/ml human PD-1 were washed three times with 450 μl wash buffer per well. Plates were blocked for 1 hour at room temperature by adding 300 μl of PBS with 1% BSA and 0.2% tween (dilution buffer) to each well. […] The mixtures were pre-incubated for 1 hour at room temperature under gentle agitation on a rotating mixer (21 rpm) and added to the microplates after 3 wash cycles with 450 μl wash buffer per well. Plates were incubated for 1.5 hours at room temperature under gentle agitation, then 10 ng/ml streptavidin-polyHRP40 was added to each microplate well after three washes with 450 μl of wash buffer per well. After 1 h incubation at RT, plates were washed three times with 450 μl wash buffer and TMB substrate solution was added. The enzymatic reaction was stopped after 6 minutes by addition of 1 M HCl and absorbance was measured at 450 nm using 690 nm as a reference wavelength. For calculation of IC₅₀ values, a four-parameter logistic (4PL) curve fit was performed in Graph Pad Prism using reference subtracted values.

[3] = target: T2, human PDL1 (recombinant, soluble); test: PDL1/B7-1 competition ELISA; B7-1 coated, biotinylated PDL1 40 ng/ml
Method: as §1, with “B7-1” for “PD-1”

[4] = target: T1, human PDL1 expressed on cells; test: cell-based or functional assay; remark: listed apart in the source
[5] = target: cynomolgus PDL1, recombinant (Sino Biological) / PDL1-Fc chimeric protein (cynomolgus (Macaca fascicularis), UniProt G7PSE7 19-238); test: SPR Biacore T200; cynomolgus PDL1 (Sino Biological) captured; scFv as analyte
Method: After each analyte injection cycle, the CM5 sensor chip was regenerated and new antigen was captured. The scFvs were injected as analyte using a dose response multicycle kinetic assay with concentrations of the analyte ranging from 0.12 to 30 nM diluted in running buffer for 5 min and dissociation of the protein was allowed to proceed for 12 min. Obtained sensorgrams were fitted using the 1:1 binding model.

Chain of cynomolgus PDL1, recombinant (Sino Biological) / PDL1-Fc chimeric protein (G7PSE7 entry or part of it mutant limits assumed): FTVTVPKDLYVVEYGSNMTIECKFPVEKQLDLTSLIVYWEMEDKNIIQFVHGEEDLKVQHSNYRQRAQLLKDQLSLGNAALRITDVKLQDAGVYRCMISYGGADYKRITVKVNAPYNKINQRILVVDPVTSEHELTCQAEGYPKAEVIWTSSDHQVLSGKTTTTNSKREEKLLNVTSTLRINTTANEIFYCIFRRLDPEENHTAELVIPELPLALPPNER

NF-AT potency assay IC50 [1] [µg/mL]	IC50 [2] [µg/mL]	IC50 [3] [µg/mL]	Binder	further results
–	–	–	PRO963 (= PRO1051)(38_02_A04 sc01 scDb-i/33-03-G02 sc01 scDb-o/19-01-H04-sc03 scFv) (other) DIQMTQSPSSLSASVGDRVTITCQASQSINDYLAWYQQKPGKAPKLLIYKASTLASGVPSRFSGSGSGTDFTLTISSLQPEDFATYYCQQGYIITDIDNVFGTGTKVTVLGGGGGSQVQLQESGPGLVKPSETLSLTCKVSGFSFSNSYWICWIRQPPGKGLEWIGCTFVGSSDSTYYANWAKGRVTISVDSSKNQFSLKLSSVTAADTAVYYCARHPSDAVYGYANNLWGQGTLVTVSSGGGGSGGGGSGGGGSGGGGSIQMTQSPSSLSASVGDRVTITCQASQSINNVLAWYQQKPGKAPKLLIYRASTLASGVPSRFSGSGSGTDFTLTISSLQPEDFATYYCQSSYGNYGDFGTGTKVTVLGGGGGSQVQLQESGPGLVKPSETLSLTCKVSGFSFSSGYDMCWIRQPPGKGLEWIGCVVAGSVDITYYASWAKGRVTISVDSSKNQFSLKLSSVTAADTAVYYCARKDAYSDAFNLWGQGTLVTVSSGGGGSGGGGSIQMTQSPSSLSASVGDRVTITCQSSESVYSNNQLSWYQQKPGQPPKLLIYDASDLASGVPSRFSGSGSGTDFTLTISSLQPEDFATYYCAGGFSSSSDTAFGGGTKLTVLGGGGGSGGGGSGGGGSGGGGSEVQLVESGGGLVQPGGSLRLSCAASGFSLSSNAMGWVRQAPGKGLEYIGIISVGGFTYYASWAKGRFTISRDNSKNTVYLQMNSLRAEDTATYFCARDRHGGDSSGAFYLWGQGTLVTVSS	NF-AT potency assay IC50 (with HSA) [1]: 0.275 µg/mL
0.133	0.00567	0.0174	PRO1060 (33-03-G02 IgG1 HC with 38_02_A04 sc01 scFv, PDL1/CD137 (scFv) silent Morrison) (bispecific antibody, also called Morrison-H) light: DIQMTQSPSSLSASVGDRVTITCQASQSINDYLAWYQQKPGKAPKLLIYKASTLASGVPSRFSGSGSGTDFTLTISSLQPEDFATYYCQQGYIITDIDNVFGTGTKVTVLGTVAAPSVFIFPPSDEQLKSGTASVVCLLNNFYPREAKVQWKVDNALQSGNSQESVTEQDSKDSTYSLSSTLTLSKADYEKHKVYACEVTHQGLSSPVTKSFNRGEC heavy: QVQLQESGPGLVKPSETLSLTCKVSGFSFSSGYDMCWIRQPPGKGLEWIGCVVAGSVDITYYASWAKGRVTISVDSSKNQFSLKLSSVTAADTAVYYCARKDAYSDAFNLWGQGTLVTVSSASTKGPSVFPLAPSSKSTSGGTAALGCLVKDYFPEPVTVSWNSGALTSGVHTFPAVLQSSGLYSLSSVVTVPSSSLGTQTYICNVNHKPSNTKVDKRVEPKSCDKTHTCPPCPAPEAAGGPSVFLFPPKPKDTLMISRTPEVTCVVVDVSHEDPEVKFNWYVDGVEVHNAKTKPREEQYNSTYRVVSVLTVLHQDWLNGKEYKCKVSNKALGAPIEKTISKAKGQPREPQVYTLPPSREEMTKNQVSLTCLVKGFYPSDIAVEWESNGQPENNYKTTPPVLDSDGSFFLYSKLTVDKSRWQQGNVFSCSVMHEALHNHYTQKSLSLSPGKGGGGSGGGGSIQMTQSPSSLSASVGDRVTITCQASQSINNVLAWYQQKPGKAPKLLIYRASTLASGVPSRFSGSGSGTDFTLTISSLQPEDFATYYCQSSYGNYGDFGTGTKVTVLGGGGGSGGGGSGGGGSGGGGSQVQLQESGPGLVKPSETLSLTCKVSGFSFSNSYWICWIRQPPGKGLEWIGCTFVGSSDSTYYANWAKGRVTISVDSSKNQFSLKLSSVTAADTAVYYCARHPSDAVYGYANNLWGQGTLVTVSS	–
–	0.0113	0.0195	PRO1062 (33-03-G02 sc01 IgG1 HC with 38_27_C05 sc01 scFv, PDL1/CD137 (scFv) silent Morrison) (bispecific antibody, also called Morrison-H) light: DIQMTQSPSSLSASVGDRVTITCQASQSINDYLAWYQQKPGKAPKLLIYKASTLASGVPSRFSGSGSGTDFTLTISSLQPEDFATYYCQQGYIITDIDNVFGTGTKVTVLGTVAAPSVFIFPPSDEQLKSGTASVVCLLNNFYPREAKVQWKVDNALQSGNSQESVTEQDSKDSTYSLSSTLTLSKADYEKHKVYACEVTHQGLSSPVTKSFNRGEC heavy: QVQLQESGPGLVKPSETLSLTCKVSGFSFSSGYDMCWIRQPPGKGLEWIGCVVAGSVDITYYASWAKGRVTISVDSSKNQFSLKLSSVTAADTAVYYCARKDAYSDAFNLWGQGTLVTVSSASTKGPSVFPLAPSSKSTSGGTAALGCLVKDYFPEPVTVSWNSGALTSGVHTFPAVLQSSGLYSLSSVVTVPSSSLGTQTYICNVNHKPSNTKVDKRVEPKSCDKTHTCPPCPAPEAAGGPSVFLFPPKPKDTLMISRTPEVTCVVVDVSHEDPEVKFNWYVDGVEVHNAKTKPREEQYNSTYRVVSVLTVLHQDWLNGKEYKCKVSNKALGAPIEKTISKAKGQPREPQVYTLPPSREEMTKNQVSLTCLVKGFYPSDIAVEWESNGQPENNYKTTPPVLDSDGSFFLYSKLTVDKSRWQQGNVFSCSVMHEALHNHYTQKSLSLSPGKGGGGSGGGGSIQMTQSPSSLSASVGDRVTITCQASQSINNVLAWYQQKPGKAPKLLIYRASTLASGVPSRFSGSGSGTDFTLTISSLQPEDFATYYCQSSYGNYGDFGTGTKVTVLGGGGGSGGGGSGGGGSGGGGSQVQLQESGPGLVKPSETLSLTCKVSGFSFSNSYWICWIRQPPGKGLEWIGCTFVGSSDSTYYANWAKGRVTISVDSSKNQFSLKLSSVTAADTAVYYCARHPSDAVYGYANNLWGQGTLVTVSS	–
0.0885	0.0095	0.0093	PRO951 (38-27-C05 sc02 scDb-i/33-03-G02 sc01 scDb-o) (bispecific antibody) DIQMTQSPSSLSASVGDRVTITCQASQSINDYLAWYQQKPGKAPKLLIYKASTLASGVPSRFSGSGSGTDFTLTISSLQPEDFATYYCQQGYIITDIDNVFGTGTKVTVLGGGGGSEVQLVESGGGLVQPGGSLRLSCAASGFSFNNDYDMCWVRQAPGKGLEWIGCIDTGDGSTYYASWAKGRFTISRDNSKNTVYLQMNSLRAEDTAVYYCAREAASSSGYGMGYFDLWGQGTLVTVSSGGGGSGGGGSGGGGSGGGGSIQMTQSPSSLSASVGDRVTITCQSSQSVYDNNWLAWYQQKPGKAPKLLIYRASNLASGVPSRFSGSGSGTDFTLTISSLQPEDFATYYCQGTYLSSNWYWAFGTGTKVTVLGGGGGSQVQLQESGPGLVKPSETLSLTCKVSGFSFSSGYDMCWIRQPPGKGLEWIGCVVAGSVDITYYASWAKGRVTISVDSSKNQFSLKLSSVTAADTAVYYCARKDAYSDAFNLWGQGTLVTVSS	–
0.0213	0.00057	0.00405	PRO1013 (37-20-B03-sc02 scFv) (scFv, also called 37-20-B03 CDR, VH1) scFv: DIQMTQSPSSLSASVGDRVTITCQASQSIGTYLAWYQQKPGKAPKLLIYRAFILASGVPSRFSGSGSGTDFTLTISSLQPEDFATYYCQSNFYSDSTTIGPNAFGTGTKVTVLGGGGGSGGGGSGGGGSGGGGSQVQLVQSGAEVKKPGASVKVSCKASGFSFNSDYWIYWVRQAPGQGLEWMGSIYGGSSGNTQYASWAQGRVTMTRDTSISTAYMELSSLRSEDTAVYYCARGYVDYGGATDLWGQGTLVTVSS	–
0.0938	0.00454	0.029	PRO1059 (33-03-G02 IgG1 LC with 38_02_A04 sc01 scFv, PDL1/CD137 (scFv) silent Morrison) (bispecific antibody, also called Morrison-L) light: DIQMTQSPSSLSASVGDRVTITCQASQSINDYLAWYQQKPGKAPKLLIYKASTLASGVPSRFSGSGSGTDFTLTISSLQPEDFATYYCQQGYIITDIDNVFGTGTKVTVLGTVAAPSVFIFPPSDEQLKSGTASVVCLLNNFYPREAKVQWKVDNALQSGNSQESVTEQDSKDSTYSLSSTLTLSKADYEKHKVYACEVTHQGLSSPVTKSFNRGECGGGGSGGGGSIQMTQSPSSLSASVGDRVTITCQASQSINNVLAWYQQKPGKAPKLLIYRASTLASGVPSRFSGSGSGTDFTLTISSLQPEDFATYYCQSSYGNYGDFGTGTKVTVLGGGGGSGGGGSGGGGSGGGGSQVQLQESGPGLVKPSETLSLTCKVSGFSFSNSYWICWIRQPPGKGLEWIGCTFVGSSDSTYYANWAKGRVTISVDSSKNQFSLKLSSVTAADTAVYYCARHPSDAVYGYANNLWGQGTLVTVSS heavy: QVQLQESGPGLVKPSETLSLTCKVSGFSFSSGYDMCWIRQPPGKGLEWIGCVVAGSVDITYYASWAKGRVTISVDSSKNQFSLKLSSVTAADTAVYYCARKDAYSDAFNLWGQGTLVTVSSASTKGPSVFPLAPSSKSTSGGTAALGCLVKDYFPEPVTVSWNSGALTSGVHTFPAVLQSSGLYSLSSVVTVPSSSLGTQTYICNVNHKPSNTKVDKRVEPKSCDKTHTCPPCPAPEAAGGPSVFLFPPKPKDTLMISRTPEVTCVVVDVSHEDPEVKFNWYVDGVEVHNAKTKPREEQYNSTYRVVSVLTVLHQDWLNGKEYKCKVSNKALGAPIEKTISKAKGQPREPQVYTLPPSREEMTKNQVSLTCLVKGFYPSDIAVEWESNGQPENNYKTTPPVLDSDGSFFLYSKLTVDKSRWQQGNVFSCSVMHEALHNHYTQKSLSLSPGK	–
–	–	–	PRO1347 (37-20-B03-sc09 scFv) (scFv) DIQMTQSPASLSASVGDRVTITCQASQSIGTYLAWYQQKPGKPPKLLIYRAFILASGVPSRFSGSGSGTDFTLTISSLQPEDFATYYCQSNFYSDSTTIGPNAFGTGTKVTVLGGGGGSGGGGSGGGGSGGGGSEVQLVESGGGLVQPGGSLRLSCAASGFSFNSDYWIYWVRQAPGKGLEWIACIYGGSSGNTQYASWAQGRFTISRDNSKNTVYLQMNSLRAEDTAVYFCARGYVDYGGATDLWGQGTLVTVSS	reporter gene assay IC50 [4]: 0.00753 µg/mL; reporter gene assay Maximum Inhibition (%) [4]: 88.9%; KD, cyno/KD, human [5]: 1.41; Kd [5]: 0.0127 nM; koff [5]: 8.77e-05 s⁻¹; kon [5]: 6.88e+06 M⁻¹ s⁻¹
